B1: Pleckstrin homology domain-containing family M member 1 (Homo sapiens), Q9Y4G2 (parent)
chain: MLSVVENGLDPQAAIPVIKKKLVGSVKALQKQYVSLDTVVTSEDGDANTMCSALEAVFIHGLHAKHIRAEAGGKRKKSAHQKPLPQPVFWPLLKAVTHKHIISELEHLTFVNTDVGRCRAWLRLALNDGLMECYLKLLLQEQARLHEYYQPTALLRDAEEGEFLLSFLQGLTSLSFELSYKSAILNEWTLTPLALSGLCPLSELDPLSTSGAELQRKESLDSISHSSGSEDIEVHHSGHKIRRNQKLTASSLSLDTASSSQLSCSLNSDSCLLQENGSKSPDHCEEPMSCDSDLGTANAEDSDRSLQEVLLEFSKAQVNSVPTNGLSQETEIPTPQASLSLHGLNTSTYLHCEAPAEPLPAQAASGTQDGVHVQEPRPQAPSPLDLQQPVESTSGQQPSSTVSETAREVGQGNGLQKAQAHDGAGLKLVVSSPTSPKNKSWISEDDFYRPSREQPLESASDHPIASYRGTPGSRPGLHRHFSQEPRKNCSLGALDQACVPSPGRRQAQAAPSQGHKSFRVVHRRQMGLSNPFRGLMKLGTVERRGAMGIWKELFCELSPLEFRLYLSNEEHTCVENCSLLRCESVGPAHSDGRFELVFSGKKLALRASSQDEAEDWLDRVREALQKVRPQQEDEWVNVQYPDQPEEPPEAPQGCLSPSDLLSEPAALQGTQFDWSSAQVPEPDAIKESLLYLYMDRTWMPYIFSLSLEALKCFRIRNNEKMLSDSHGVETIRDILPDTSLGGPSFFKIITAKAVLKLQAGNAEEAALWRDLVRKVLASYLETAEEAVTLGGSLDENCQEVLKFATRENGFLLQYLVAIPMEKGLDSQGCFCAGCSRQIGFSFVRPKLCAFSGLYYCDICHQDDASVIPARIIHNWDLTKRPICRQALKFLTQIRAQPLINLQMVNASLYEHVERMHLIGRRREQLKLLGDYLGLCRSGALKELSKRLNHRNYLLESPHRFSVADLQQIADGVYEGFLKALIEFASQHVYHCDLCTQRGFICQICQHHDIIFPFEFDTTVRCAECKTVFHQSCQAVVKKGCPRCARRRKYQEQNIFA

Key:
[1] = variants of: B1; conditions: with rab7a_canlf RAB7A
[2] = variants of: B1; conditions: with gbrap_human GABARAP

Row | effect of a mutation on the interaction [1] | effect of a mutation on the interaction [2] | Variant
1 | with no effect | with no effect | S432A;S435A
2 | with no effect | with no effect | S432D;S435D

Source: IntAct's records for PubMed 33452816
